Columns and labels:
[1] = molecular target: G115 Vγ9Vδ2+ TCR wild-type, full-length, on transfected HEK293T cells (human); experiment: flow cytometry, tetramer-PE versus CD3-APC on HEK293T cells co-transfected with CD3 and G115 WT TCR; SAv ctl 27
[2] = molecular target: full-length human BTN3A1 on transfected cells (human) (UniProt O00481); experiment: flow cytometry, control tetramer-PE on BTN3A1+ NIH-3T3 cells, isotype (IgG1κ)-treated (black number), GFP+ gate; SAv ctl 25
[3] = molecular target: BTN2A1 on transfected cells (human) (UniProt Q7KYR7); experiment: flow cytometry, control tetramer-PE on BTN2A1+ NIH-3T3 cells, mAb 20.1-treated (grey number), GFP+ gate; SAv ctl 22
[4] = molecular target: G115 Vγ9Vδ2+ TCR His85γ-Ala on transfected HEK293T cells (human); experiment: flow cytometry, tetramer-PE versus CD3-APC on HEK293T cells co-transfected with CD3 and G115 His85γ-Ala TCR; SAv ctl 27
[5] = molecular target: G115 Vγ9Vδ2+ TCR Lys53δ-Ala on transfected HEK293T cells (human); experiment: flow cytometry, tetramer-PE versus CD3-APC on HEK293T cells co-transfected with CD3 and G115 Lys53δ-Ala TCR; SAv ctl 27
[6] = molecular target: G115 Vγ9Vδ2+ TCR Glu52δ-Ala on transfected HEK293T cells (human); experiment: flow cytometry, tetramer-PE versus CD3-APC on HEK293T cells co-transfected with CD3 and G115 Glu52δ-Ala TCR; SAv ctl 32
[7] = molecular target: full-length human BTN3A1 on transfected cells (human) (UniProt O00481); experiment: flow cytometry, γδTCR tetramer-PE on BTN3A1+ NIH-3T3 cells, isotype (IgG1κ)-treated (black number), GFP+ gate; SAv ctl 28
[8] = molecular target: BTN2A1-BTN3A1-zipper ectodomain complex (wild type) (human) (UniProt Q7KYR7); experiment: flow cytometry, complex tetramer MFI on transfected BTN2A.BTN3A KO HEK293T cells; mean ± SEM; control
[9] = molecular target: BTN2A1-BTN3A1 complex peptide on (human); experiment: PE-labelled BTN2A1-BTN3A1 complex tetramer on BTN2A.BTN3A-knockout HEK293T cells transfected with the TCR and CD3; reduced against WT G115; full-length, on cells

Sequence of G115 Vγ9Vδ2+ TCR His85γ-Ala on transfected HEK293T cells (human) (TCR delta, as listed by the source, chain 1 of 2): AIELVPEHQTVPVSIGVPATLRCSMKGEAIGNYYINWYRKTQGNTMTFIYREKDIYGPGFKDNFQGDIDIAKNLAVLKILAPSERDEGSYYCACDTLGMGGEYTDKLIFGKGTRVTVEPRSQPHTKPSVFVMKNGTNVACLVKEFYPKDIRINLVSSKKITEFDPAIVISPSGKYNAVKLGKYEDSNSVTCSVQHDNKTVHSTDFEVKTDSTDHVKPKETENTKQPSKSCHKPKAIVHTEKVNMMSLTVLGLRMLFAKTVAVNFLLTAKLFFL
Sequence of G115 Vγ9Vδ2+ TCR His85γ-Ala on transfected HEK293T cells (human) (TCR gamma, as listed by the source, chain 2 of 2): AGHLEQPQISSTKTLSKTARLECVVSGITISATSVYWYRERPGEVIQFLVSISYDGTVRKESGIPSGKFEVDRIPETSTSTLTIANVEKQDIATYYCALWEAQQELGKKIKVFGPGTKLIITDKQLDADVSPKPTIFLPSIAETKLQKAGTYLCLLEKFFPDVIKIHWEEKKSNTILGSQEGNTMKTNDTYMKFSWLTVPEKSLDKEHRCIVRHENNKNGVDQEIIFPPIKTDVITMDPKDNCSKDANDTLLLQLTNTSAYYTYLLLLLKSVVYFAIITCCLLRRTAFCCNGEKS
Sequence of BTN2A1 on transfected cells (human) (Q7KYR7 29-527 limits assumed): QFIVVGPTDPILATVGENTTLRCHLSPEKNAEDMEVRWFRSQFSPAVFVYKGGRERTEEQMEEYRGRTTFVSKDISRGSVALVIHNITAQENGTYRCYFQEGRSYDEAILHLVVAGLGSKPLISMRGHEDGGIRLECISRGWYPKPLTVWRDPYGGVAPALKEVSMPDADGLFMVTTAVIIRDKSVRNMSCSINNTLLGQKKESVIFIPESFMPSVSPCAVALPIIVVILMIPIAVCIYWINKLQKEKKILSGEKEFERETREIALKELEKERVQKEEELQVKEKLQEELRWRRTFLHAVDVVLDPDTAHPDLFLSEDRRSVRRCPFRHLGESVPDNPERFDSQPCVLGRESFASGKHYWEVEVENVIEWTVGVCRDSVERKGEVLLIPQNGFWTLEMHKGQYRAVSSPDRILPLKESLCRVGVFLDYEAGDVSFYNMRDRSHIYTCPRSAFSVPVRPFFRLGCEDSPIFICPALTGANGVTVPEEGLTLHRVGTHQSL

Which median fluorescence of PE [1] does the source give for mCD1d tet. ctl here?
The median fluorescence of PE was 20.

What about the MFI of PE [2] of the same substance?
Its MFI of PE is 32.

What about the MFI of PE [3] of the same substance?
The MFI of PE was 20.

What about the median fluorescence of PE [4] of the same substance?
The median fluorescence of PE was 22.

What about the median fluorescence of PE [5] of the same substance?
The median fluorescence of PE was 23.

What about the median fluorescence of PE [6] of the same substance?
The median fluorescence of PE was 28.

How did the MFI of PE [7] turn out when “chimeric γδTCR tetramer: G115 Vγ9+ γ-chain with 9C2 Vδ1+ δ-chain” was run?
The MFI of PE was 24.

Which fold-change of BTN2A1-BTN3A1 complex tetramer MFI relative to WT G115 TCR [8] does the source give for “CD3 complex on HEK293T cells transfected with CD3 only (receptor)” here?
The fold-change of BTN2A1-BTN3A1 complex tetramer MFI relative to WT G115 TCR was 0.3 fold.

With G115 Vγ9Vδ2+ TCR K53E as the substance, how does the fold change of tetramer MFI against WT G115 TCR [9] read?
Its fold change of tetramer MFI against WT G115 TCR is 0.7 fold.

How did the fold change of tetramer MFI against WT G115 TCR [9] turn out when G115 Vγ9Vδ2+ TCR K53D was run?
Its fold change of tetramer MFI against WT G115 TCR is 0.8 fold.

From US20250161356A1
